In patent US20140274782A1, “AFFINITY REAGENTS AND METHODS FOR DETECTION, PURIFICATION, AND PROTEOMIC ANALYSIS OF METHYLATED PROTEINS” (The Board of Trustees of the Leland Stanford Junior …, priority 2013, published 2014):

B1: LRWD1 (protein, UniProt Q9UFC0 1-647, looked up)
Leucine-rich repeat and WD …: MGPLSARLLMQRGRPKSDRLGKIRSLDLSGLELLSEHLDPKLLCRLTQLQELDLSNNHLETLPDNLGLSHLRVLRCANNQLGDVTALCQFPKLEELSLEGNPFLTVNDNLKVSFLLPTLRKVNGKDASSTYSQVENLNRELTSRVTAHWEKFMATLGPEEEAEKAQADFVKSAVRDVRYGPESLSEFTQWRVRMISEELVAASRTQVQKANSPEKPPEAGAAHKPRARLAALKRPDDVPLSLSPSKRACASPSAQVEGSPVAGSDGSQPAVKLEPLHFLQCHSKNNSPQDLETQLWACAFEPAWEEGATSQTVATCGGEAVCVIDCQTGIVLHKYKAPGEEFFSVAWTALMVVTQAGHKKRWSVLAAAGLRGLVRLLHVRAGFCCGVIRAHKKAIATLCFSPAHETHLFTASYDKRIILWDIGVPNQDYEFQASQLLTLDTTSIPLRLCPVASCPDARLLAGCEGGCCCWDVRLDQPQKRRVCEVEFVFSEGSEASGRRVDGLAFVNEDIVASKGSGLGTICLWSWRQTWGGRGSQSTVAVVVLARLQWSSTELAYFSLSACPDKGIVLCGDEEGNVWLYDVSNILKQPPLLPAALQAPTQILKWPQPWALGQVVTKTMVNTVVANASFTYLTALTDSNIVAIWGRM
B2: PRPF19 (protein, UniProt Q9UMS4 2-504, looked up)
Pre-mRNA-processing factor 19: SLICSISNEVPEHPCVSPVSNHVYERRLIEKYIAENGTDPINNQPLSEEQLIDIKVAHPIRPKPPSATSIPAILKALQDEWDAVMLHSFTLRQQLQTTRQELSHALYQHDAACRVIARLTKEVTAAREALATLKPQAGLIVPQAVPSSQPSVVGAGEPMDLGELVGMTPEIIQKLQDKATVLTTERKKRGKTVPEELVKPEELSKYRQVASHVGLHSASIPGILALDLCPSDTNKILTGGADKNVVVFDKSSEQILATLKGHTKKVTSVVFHPSQDLVFSASPDATIRIWSVPNASCVQVVRAHESAVTGLSLHATGDYLLSSSDDQYWAFSDIQTGRVLTKVTDETSGCSLTCAQFHPDGLIFGTGTMDSQIKIWDLKERTNVANFPGHSGPITSIAFSENGYYLATAADDSSVKLWDLRKLKNFKTLQLDNNFEVKSLIFDQSGTYLALGGTDVQIYICKQWTEILHFTEHSGLTTGVAFGHHAKFIASTGMDRSLKFYSL
B3: SRBD1 (protein, UniProt Q8N5C6 1-995, looked up)
S1 RNA-binding …: MSSLPRRAKVQVQDVVLKDEFSSFSELSSASEEDDKEDSAWEPQKKVPRSRKQPPPKESKPKRMPRVKKNAPQISDGSEVVVVKEELNSSVAIADTALEDRKNKLDTVQTLKTAKTKQKCAAQPHTVRRTKKLKVEEETSKASNLEGESNSSETPSTSTVWGGTCKKEENDDDFTFGQSALKKIKTETYPQGQPVKFPANANSTKEEVEMNWDMVQVLSERTNIEPWVCANIIRLFNDDNTIPFIIRYRKELINNLDADSLREVQQTLEELRAVAKKVHSTIQKIKKEGKMSECLLKAMLNCKTFEELEHVSAPYKTGSKGTKAQRARQLGLEGAARALLEKPGELSLLSYIRPDVKGLSTLQDIEIGVQHILADMIAKDKDTLDFIRNLCQKRHVCIQSSLAKVSSKKVNEKDVDKFLLYQHFSCNIRNIHHHQILAINRGENLKVLTVKVNISDGVKDEFCRWCIQNRWRPRSFARPELMKILYNSLNDSFKRLIYPLLCREFRAKLTSDAEKESVMMFGRNLRQLLLTSPVPGRTLMGVDPGYKHGCKLAIISPTSQILHTDVVYLHCGQGFREAEKIKTLLLNFNCSTVVIGNGTACRETEAYFADLIMKNYFAPLDVVYCIVSEAGASIYSVSPEANKEMPGLDPNLRSAVSIARRVQDPLAELVKIEPKHIGVGMYQHDVSQTLLKATLDSVVEECVSFVGVDINICSEVLLRHIAGLNANRAKNIIEWREKNGPFINREQLKKVKGLGPKSFQQCAGFIRINQDYIRTFCSQQTETSGQIQGVAVTSSADVEVTNEKQGKKKSKTAVNVLLKPNPLDQTCIHPESYDIAMRFLSSIGGTLYEVGKPEMQQKINSFLEKEGMEKIAERLQTTVHTLQVIIDGLSQPESFDFRTDFDKPDFKRSIVCLEDLQIGTVLTGKVENATLFGIFVDIGVGKSGLIPIRNVTEAKLSKTKKRRSLGLGPGERVEVQVLNIDIPRSRITLDLIRVL
B4: CAPRIN1 (protein, UniProt Q14444 2-709, looked up)
Caprin-1: PSATSHSGSGSKSSGPPPPSGSSGSEAAAGAGAAAPASQHPATGTGAVQTEAMKQILGVIDKKLRNLEKKKGKLDDYQERMNKGERLNQDQLDAVSKYQEVTNNLEFAKELQRSFMALSQDIQKTIKKTARREQLMREEAEQKRLKTVLELQYVLDKLGDDEVRTDLKQGLNGVPILSEEELSLLDEFYKLVDPERDMSLRLNEQYEHASIHLWDLLEGKEKPVCGTTYKVLKEIVERVFQSNYFDSTHNHQNGLCEEEEAASAPAVEDQVPEAEPEPAEEYTEQSEVESTEYVNRQFMAETQFTSGEKEQVDEWTVETVEVVNSLQQQPQAASPSVPEPHSLTPVAQADPLVRRQRVQDLMAQMQGPYNFIQDSMLDFENQTLDPAIVSAQPMNPTQNMDMPQLVCPPVHSESRLAQPNQVPVQPEATQVPLVSSTSEGYTASQPLYQPSHATEQRPQKEPIDQIQATISLNTDQTTASSSLPAASQPQVFQAGTSKPLHSSGINVNAAPFQSMQTVFNMNAPVPPVNEPETLKQQNQYQASYNQSFSSQPHQVEQTELQQEQLQTVVGTYHGSPDQSHQVTGNHQQPPQQNTGFPRSNQPYYNSRGVSRGGSRGARGLMNGYRGPANGFRGGYDGYRPSFSNTPNSGYTQSQFSAPRDYSGYQRDGYQQNFKRGSGQSGPRGAPRGRGGPPRPNRGMPQMNTQQVN

Assays:
3×MBT domain of L3MBTL1 = experiment: Triple SILAC pull-down, 3xMBT/3xMBTD355N ratio (cytoplasmic, nuclear and chromatin fractions of 293T cells); assay type: binding, human; settings: SILAC ratio, pull-down 3xMBT vs 3xMBTD355N; for 3xMBT/D355N UNC Heavy: experiment with UNC0638 in heavy SILAC media; for 3xMBT/D355N UNC Light: experiment with UNC0638 in light SILAC media;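 on all read-outs here: proteins quantified with MaxQuant, requiring at least two unique peptides and quantification in both label directions, normalized to the mean of proteins from a digested loading control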
G9a and GLP = molecular target: T1, G9a and GLP (Homo sapiens, UniProt Q96KQ7+Q9H9B1); experiment: Triple SILAC pull-down after UNC0638 treatment of 293T cells, DMSO/UNC0638 ratio of protein captured by 3×MBT; assay type: cell-based; parameters: endogenous in cells; host or cells: HEK 293T; settings: for Relative to UNC0638 UNC Heavy / Relative to UNC0638 UNC Light: SILAC ratio DMSO/UNC0638 of protein pulled down with 3xMBT; for Relative to UNC0638 UNC Heavy: UNC0638 in heavy SILAC media; for Relative to UNC0638 UNC Light: UNC0638 in light SILAC media; for Relative to UNC0638 Average: average of UNC Light and UNC Heavy experiments;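 on all read-outs here: mass spectrometry (Q-Exactive) SILAC quantitation, DMSO/UNC0638 ratio computed after subtracting 3×MBTD355N mutant pull-down background, only proteins with at least twofold 3×MBT over mutant signal considered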
T1 sequence (Q96KQ7 2-1210 limits assumed): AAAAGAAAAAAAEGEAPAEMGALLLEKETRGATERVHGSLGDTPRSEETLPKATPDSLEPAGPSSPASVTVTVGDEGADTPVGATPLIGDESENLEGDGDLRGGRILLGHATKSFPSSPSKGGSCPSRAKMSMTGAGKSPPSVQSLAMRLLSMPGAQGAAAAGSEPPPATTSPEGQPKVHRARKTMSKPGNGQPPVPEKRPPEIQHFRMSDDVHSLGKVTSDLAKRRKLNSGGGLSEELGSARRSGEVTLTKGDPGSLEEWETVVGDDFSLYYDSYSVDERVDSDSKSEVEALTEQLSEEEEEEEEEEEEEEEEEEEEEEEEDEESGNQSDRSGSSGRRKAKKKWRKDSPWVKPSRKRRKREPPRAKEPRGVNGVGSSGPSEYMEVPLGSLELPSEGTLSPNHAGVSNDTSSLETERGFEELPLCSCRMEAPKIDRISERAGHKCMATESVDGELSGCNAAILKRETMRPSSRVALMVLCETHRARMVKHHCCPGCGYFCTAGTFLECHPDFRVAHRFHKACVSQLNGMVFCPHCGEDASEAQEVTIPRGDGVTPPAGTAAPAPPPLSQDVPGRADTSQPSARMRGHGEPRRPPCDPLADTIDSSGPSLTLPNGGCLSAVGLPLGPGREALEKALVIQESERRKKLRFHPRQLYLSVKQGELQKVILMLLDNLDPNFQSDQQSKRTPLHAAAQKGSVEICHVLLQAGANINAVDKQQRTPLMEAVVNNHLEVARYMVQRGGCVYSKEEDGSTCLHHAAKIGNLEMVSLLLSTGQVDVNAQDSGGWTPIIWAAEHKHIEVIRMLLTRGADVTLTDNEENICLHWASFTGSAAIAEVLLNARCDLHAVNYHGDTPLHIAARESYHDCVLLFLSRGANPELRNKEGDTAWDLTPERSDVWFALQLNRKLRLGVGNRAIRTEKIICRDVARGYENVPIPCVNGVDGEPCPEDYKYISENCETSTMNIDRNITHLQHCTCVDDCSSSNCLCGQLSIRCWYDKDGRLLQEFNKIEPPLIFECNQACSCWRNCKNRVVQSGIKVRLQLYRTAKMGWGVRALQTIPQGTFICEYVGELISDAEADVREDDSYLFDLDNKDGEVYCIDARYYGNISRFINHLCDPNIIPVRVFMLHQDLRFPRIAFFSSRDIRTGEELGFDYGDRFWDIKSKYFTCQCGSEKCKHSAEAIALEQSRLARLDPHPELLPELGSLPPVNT
T1 sequence (Q9H9B1 2-1298 limits assumed): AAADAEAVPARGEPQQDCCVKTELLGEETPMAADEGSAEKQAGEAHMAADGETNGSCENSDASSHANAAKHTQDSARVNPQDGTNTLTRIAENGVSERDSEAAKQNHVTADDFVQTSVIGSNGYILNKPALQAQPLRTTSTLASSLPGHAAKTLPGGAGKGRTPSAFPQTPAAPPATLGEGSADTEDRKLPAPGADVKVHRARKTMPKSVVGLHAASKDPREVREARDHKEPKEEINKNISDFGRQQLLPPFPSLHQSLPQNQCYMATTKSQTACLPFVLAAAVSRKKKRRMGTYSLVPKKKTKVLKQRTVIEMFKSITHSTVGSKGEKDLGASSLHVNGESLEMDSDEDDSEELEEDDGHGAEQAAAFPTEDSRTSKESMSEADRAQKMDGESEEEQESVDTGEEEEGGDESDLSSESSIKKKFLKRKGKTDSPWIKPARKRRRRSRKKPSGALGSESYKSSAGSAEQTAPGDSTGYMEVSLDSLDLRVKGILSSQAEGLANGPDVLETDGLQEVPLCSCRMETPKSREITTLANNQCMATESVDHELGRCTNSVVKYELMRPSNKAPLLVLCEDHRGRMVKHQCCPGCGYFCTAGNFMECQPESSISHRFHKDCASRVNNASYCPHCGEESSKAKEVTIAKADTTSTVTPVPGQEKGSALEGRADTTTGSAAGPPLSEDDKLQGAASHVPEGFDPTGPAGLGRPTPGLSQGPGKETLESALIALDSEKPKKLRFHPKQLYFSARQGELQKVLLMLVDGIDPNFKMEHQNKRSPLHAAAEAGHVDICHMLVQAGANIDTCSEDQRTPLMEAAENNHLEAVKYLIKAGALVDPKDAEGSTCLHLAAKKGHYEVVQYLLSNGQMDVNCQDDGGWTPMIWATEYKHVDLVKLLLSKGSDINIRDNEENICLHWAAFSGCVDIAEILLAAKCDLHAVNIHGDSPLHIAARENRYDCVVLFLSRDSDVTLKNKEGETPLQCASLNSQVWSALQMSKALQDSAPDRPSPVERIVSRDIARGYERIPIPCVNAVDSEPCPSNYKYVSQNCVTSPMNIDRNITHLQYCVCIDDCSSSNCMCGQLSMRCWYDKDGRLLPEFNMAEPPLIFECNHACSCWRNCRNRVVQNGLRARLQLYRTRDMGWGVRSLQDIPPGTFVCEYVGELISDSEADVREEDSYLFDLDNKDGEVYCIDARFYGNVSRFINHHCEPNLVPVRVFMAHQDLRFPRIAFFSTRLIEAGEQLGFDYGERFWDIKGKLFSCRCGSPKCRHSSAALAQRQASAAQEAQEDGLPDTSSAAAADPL
Description: For UNC0638 treatments cells were treated for 24 hours with UNC0638 at 2.5 μM or DMSO vehicle control. One experiment treated cells in light media with UNC0638, the other treated cells in heavy media. Both experiments included cells in medium media treated with DMSO for negative control pull-down with 3×MBTD355N.
UNC0638 treatment experiments used a Q-Exactive mass spectrometer (ThermoFisher Scientific). A 25 cm HPLC column with 3 μm Reliasil (Orochem) was used to separate peptides over a 4 hour gradient from 0 to 75% acetonitrile. Ions were generated using a custom nanospray source flowing at 250 nL/minute. Mass spectrometry settings were 70,000 MS1 resolution, data dependent selection of up to 20 precursor ions per cycle, dynamic exclusion of 30 seconds and isolation window of 2 m/z.
For UNC0638 experiments the treated vs. untreated ratio was determined by subtracting the value from 3×MBTD355N prior to dividing values from the light and heavy channels. Only proteins showing a two-fold signal to background ratio (3×MBT/3×MBTD355N) were evaluated as potential G9a/GLP substrates.

Row | Molecule | 3xMBT/D355N UNC Heavy (3×MBT domain of L3MBTL1) | 3xMBT/D355N UNC Light (3×MBT domain of L3MBTL1) | Relative to UNC0638 UNC Heavy (G9a and GLP) | Relative to UNC0638 UNC Light (G9a and GLP) | Relative to UNC0638 Average (G9a and GLP)
1 | B1 | 2.59 log base 2 | 2.64 log base 2 | 0.01 log base 2 | 0.25 log base 2 | 0.13 log base 2
2 | B2 | 2.05 log base 2 | 1.97 log base 2 | 0.39 log base 2 | −0.15 log base 2 | 0.12 log base 2
3 | B3 | 1.02 log base 2 | 1.29 log base 2 | −0.13 log base 2 | 0.37 log base 2 | 0.12 log base 2
4 | B4 | 2.45 log base 2 | 4.36 log base 2 | −1.08 log base 2 | 1.34 log base 2 | 0.13 log base 2
